The results in this text go back to US20230183352A1 (published 2023).

Changes are numbered by the printed parent chain.

To fix the notation:
B1: QP192193 (antibody, V domains shown)
VH: QVQLQQSGAELVRPGSSVKISCKASGYAFSSYWMNWVKQRPGQGLEWIGQIYPGNGDTTYNGKFKGQATLTADKSSSTVYMQLSSLTSEDSAVYFCARFVKGNAMDYWGQGTSVTVSS
VL: DIVMTQSPSSLTVTAGEKVTMSCKSSQSLLNSGNQKNYLTWYQQNPGQPPKMLIYWASTRESGVPDRFTGSGSGIDFSLTISSVQAEDLALYYCQNAYSYPFTFGSGTKLEIK
B2: QP14431439 (antibody, V domains shown)
VH: QVQLVQSGAEVKKPGASVKVSCKASGYAFSSYWMNWVRQAPGQGLEWMGQIYPGNGDTTYNGKFKGRVTMTRDTSTSTVYMELSSLRSEDTAVYYCARFVKGNAMDYWGQGTLVTVSS
VL: DIVMTQSPDSLAVSLGERATINCKSSQSLLNSGNQKNYLTWYQQKPGQPPKLLIYWASTRESGVPDRFSGSGSGTDFTLTISSLQAEDVAVYYCQNAYSYPFTFGQGTKLEIK
B3: QP14431440 (antibody, V domains shown)
VH: B2 VH
VL: B2 VL with N22S
B4: QP14511447 (antibody, V domains shown)
VH: EVQLVESGGGLVQPGGSLRLSCAASGFTFSSFGMHWVRQAPGKGLEWVAYISSGSNSIYYVDTVKGRFTISRDNAKNSLYLQMNSLRSEDTAVYYCARNAYYGNSFDYWGQGTLVTVSS
VL: B2 VL with N22S, Y93F, A97N, S99Y, F102L, Q106G, L110V
B5: QP14631462 (antibody, V domains shown)
VH: QVQLVQSGAEVKKPGASVKVSCKASGYTFTSYIMHWVRQAPGQGLEWMGYINPYNDGTKYNEKFKGRVTMTRDTSTSTVYMELSSLRSEDTAVYYCARLGFTTRNAMDYWGQGTLVTVSS
VL: B2 VL with T40A, W56G, S69T, L84V, A97D, Y98H
B6: QP14501447 (antibody, V domains shown)
VH: B4 VH with S88D
VL: B2 VL with N22S, Y93F, A97N, S99Y, F102L, Q106G, L110V
B7: QP14491447 (antibody, V domains shown)
VH: B4 VH with A49S, S88D
VL: B2 VL with N22S, Y93F, A97N, S99Y, F102L, Q106G, L110V
B8: QP14661462 (antibody, V domains shown)
VH: B5 VH with Q1E, R38K, M48I, R67K, V68A, M70L, R72S, T74K, Y95C
VL: B2 VL with T40A, W56G, S69T, L84V, A97D, Y98H
B9: QP207208 (antibody, V domains shown)
VH: EVQLQQSGPELVKPGASVKMSCKASGYTFTSYIMHWVKQKPGQGLEWIGYINPYNDGTKYNEKFKGKATLTSDKSSSTVYMELSSLTSEDSAVYCCARLGFTTRNAMDYWGQGTSVTVSS
VL: DIVMTQSPSSLSVSAGEKVTMNCKSSQSLLNSGNQKNYLAWYQQKPGQPPKLLIYGASTRESGVPDRFTGSGSGTDFTLTISSVQAEDLAVYYCQNDHSYPFTFGSGTKLEIK
B10: QP14641461 (antibody, V domains shown)
VH: B5 VH with Q1E, M48I, M70L, T74K
VL: DIVMTQSPDSLAVSLGERATINCKSSQSLLNSGNQKNYLAWYQQKPGQPPKLLIYGASTRESGVPDRFTGSGSGTDFTLTISSLQAEDVAVYYCQNDHSYPFTFGQGTKLEIKR
B11: QP14651460 (antibody, V domains shown)
VH: B5 VH with Q1E, M48I, M70L, R72S, T74K
VL: B10 VL with T69S
B12: QP190191 (antibody, V domains shown)
VH: EVKLVESGGGLVKPGGSLKLSCAASGFTFSNYAMSWVRQTPEKRLEWVASIISGGRTYYLDSEKGRFTISRDNARNNLYLQMSSLRSEDTAMYYCTRIYYGNSFDYWGQGTTLTVSS
VL: B9 VL with L11Q, S12T, S14T, N22S, A40T, G56W, S83N, V84M, H98Y
B13: QP14371433 (antibody, V domains shown)
VH: EVQLVESGGGLVKPGGSLRLSCAASGFTFSNYAMSWVRQAPGKGLEWVASIISGGRTYYLDSEKGRFTISRDNAKNSLYLQMNSLRAEDTAVYYCTRIYYGNSFDYWGQGTLVTVSS
VL: B10 VL with A40T, G56W, T69S, H98Y
B14: QP14371435 (antibody, V domains shown)
VH: B13 VH
VL: B10 VL with N22S, A40T, G56W, H98Y
B15: QP14361435 (antibody, V domains shown)
VH: B13 VH with A49S
VL: B10 VL with N22S, A40T, G56W, H98Y
B16: QP14381433 (antibody, V domains shown)
VH: B13 VH with G44R
VL: B2 VL with A97D
B17: QP14371434 (antibody, V domains shown)
VH: B13 VH
VL: B2 VL with N22S, A97D
B18: QP14381434 (antibody, V domains shown)
VH: B13 VH with G44R
VL: B2 VL with N22S, A97D
B19: QP14361433 (antibody, V domains shown)
VH: B13 VH with A49S
VL: B2 VL with A97D
B20: QP14631460 (antibody, V domains shown)
VH: B5 VH
VL: B2 VL with T40A, W56G, A97D, Y98H
B21: QP14361434 (antibody, V domains shown)
VH: B13 VH with A49S
VL: B2 VL with N22S, A97D
B22: QP14381435 (antibody, V domains shown)
VH: B13 VH with G44R
VL: B2 VL with N22S, S69T, A97D
B23: QP14441441 (antibody, V domains shown)
VH: B2 VH with M48I, R72A, T74K
VL: B10 VL with N22S, A40T, G56W, T69S, T75I, L84V, D97A, H98Y
B24: QP14451440 (antibody, V domains shown)
VH: B2 VH with M48I, R72A, T74K, Y95F
VL: B10 VL with N22S, A40T, G56W, T69S, D97A, H98Y
B25: QP14451442 (antibody, V domains shown)
VH: B2 VH with M48I, R72A, T74K, Y95F
VL: B10 VL with N22S, A40T, L52M, G56W, T69S, T75I, L84V, D97A, H98Y

One assay has as its target T1, Claudin 18.2 (CLDN18.2), expressed on CHOS-CLDN 18.2 / HEK293-CLDN 18.2 / HCC827-CLDN 18.2 cells (human, UniProt P56856 1-261). The assay can be described thus: cell ELISA.
Consider B1, for which the 50% effective concentration (EC50) (commonly the concentration giving half of the maximal effect) turned out to be 0.101 mg/L. B2 registered an EC50 of 0.111 mg/L.

In the case of B3, the midpoint of the response, the EC50, lay at 0.124 mg/L. The same measure, in the same setting: to B4 belongs 0.202 mg/L. Same read-out and setting: the same measure for B5: 0.105 mg/L; for B6: 0.0926 mg/L. On to B7, for which a half-maximal effect (EC50) was put at 0.148 mg/L. Same read-out and setting: the same measure for B8: 0.538 mg/L; for B9: 0.179 mg/L.

A further assay deals with T1, Claudin 18.2 (CLDN18.2), expressed on …. The assay can be described thus: cell ELISA. The source holds these as a separate data set.
On to B1, for which the EC50 is 0.155 mg/L.

Another assay has the same target. The assay can be described thus: ELISA.
For B10, the EC50 came to 0.0783 mg/L.

With B11, the EC50 came out at 0.0904 mg/L.

The target is the same in the next assay. As to the kind of experiment: cell ELISA. This is another data set of the same source.
As for B12, the EC50 came out at 0.178 mg/L.

In turn, B13 showed an EC50 of 0.108 mg/L. The same measure, in the same setting: the same measure for B14: 0.134 mg/L; for B15: 0.109 mg/L. On the same count and under the same terms, to B16 belongs 0.125 mg/L; to B17, 0.284 mg/L; to B18, 0.145 mg/L. On the same count and under the same terms, to B19 belongs 0.112 mg/L; to B20, 0.135 mg/L.

In the case of B21, the EC50 was 0.17 mg/L.

Regarding B22, the EC50 came to 0.196 mg/L. B9 had an EC50 of 0.119 mg/L.

Another assay has the same target. As to the kind of experiment: ELISA. This is another data set of the same source. (ELISA stands for enzyme-linked immunosorbent assay.)
In turn, B23 came in with an EC50 of 0.106 mg/L. For the molecule B24, the half-maximal effective concentration (EC50) amounted to 0.0995 mg/L. Consider B25, for which the EC50 is 0.0977 mg/L.
